From the supplement of paper PMC9170038

System: MS2 coat protein
Assay: apparent KD of MS2 coat protein; designed switch direction (-1 OFF switch, 1 ON switch): -1; higher = weaker reporter binding
Summary of the method: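 On Illumina chips, designed RNA switches with common flanks were made by stalled E. coli RNA polymerase. Titrations with SNAP-549-labelled MS2 coat protein, doubling from 0.7 or 1.5 nM to 3 µM, were done with no input, with 200 uM small-molecule ligand, or with an oligonucleotide input. Apparent KD is the median per design over clusters, from curve fits of normalised cluster fluorescence.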

[1] = Eterna round: R95, input ligand: FMN 200 uM
[2] = Eterna round: R95, input ligand: microRNA oligo, concentration not stated
[3] = Eterna round: R95, input ligand: none
[4] = input ligand: microRNA oligo, concentration not stated

Row | Sequence | apparent KD of MS2 coat protein (input ligand: FMN 200 uM) [nM] | apparent KD of MS2 coat protein (input ligand: none) [nM] | apparent KD of MS2 coat protein [1] [nM] | apparent KD of MS2 coat protein [2] [nM] | apparent KD of MS2 coat protein [3] [nM] | apparent KD of MS2 coat protein [4] [nM]
1 | GGUAUACAUGAGGAUCACCCAUGUCAGGAUAUGGAAACAUAUGCCGAAAGGCAUAUGGCCAGAAGGGACAAUAG [AK-MS2ROC-r4-exclusion1-5.1] (Eterna round: R97, puzzle: Exclusion 1) | 117 | 77.5 | – | – | – | –
2 | GGUCAAGAACAGCUCCGCGCUGUCCUUGACCGCUCAUUUACAUGAGGAUCACCCAUGUUUUUUGCUUGUCUUGUUUC [Estetexequ] (puzzle: Sensor v3, turn-off variant 2) | – | – | 21 | 98.7 | 23.8 | –
3 | GGUCAAGGACAGAUCCGCGCUGCCCUUGACCGCUCAUUUACAUGAGGAUCACCCAUGUUUUUUGCUUGUCUUGUUAC [Erbete] (puzzle: Sensor v3, turn-off variant 2) | – | – | 16.2 | 94 | 18.1 | –
4 | GGUCAGACGGUAGGAUAUCCAUAUCGAGUGACCCUUUCAUAACAUGAGGAUCACCCAUGUCGGUGGGAGAAGGGCUGUACGGCG [salish99_ExNG02_R04_002] (Eterna round: R96, puzzle: Exclusion NG 2) | 45.8 | 35.6 | – | – | – | 22.6
5 | GGUCCUUCUGUCAGGAUAUCCAGUAUCAGACAGCAGGAGAAGGGACAUGAGGAUCACCCAUGUAAUAAGAAGAA [Onrean] (Eterna round: R97, puzzle: Brourd's mod of Exclusion 4) | 51.9 | 27.6 | – | – | – | –
6 | GGUCGACAUGAGGAUCACCCAUGUCAGGAUAUCGUCACUGGAGCUGCGGCUCCAGUGACGAGAAGGGAUAUAAU [E1/15-A3] (Eterna round: R97, puzzle: Exclusion 1) | 45.3 | 38.8 | – | – | – | –
7 | GGUCUACAUGAGGAUCACCCAUGUAAGGAUAUCGUCACUGGAGCUGCGGCUCCAGUGACGAGAAGGUACGUAAU [E1/12-A3] (Eterna round: R97, puzzle: Exclusion 1) | 33.7 | 32.4 | – | – | – | –
8 | GGUCUACAUGAGGAUCACCCAUGUAAGGAUAUCGUCACUGGAGCUGCGGCUCCAGUGACGAGAAGGUGCAUAAU [E1/11-A3] (Eterna round: R97, puzzle: Exclusion 1) | 39.4 | 30.8 | – | – | – | –
9 | GGUCUGCGAGGAUAUACAUGAGGAUCACCCAUGUGAGAGAUACUAGUGAGGUCGAUUGGUAGAAGGCGCGGACG [JL-ex3-2.03 salish99 mod] (puzzle: Exclusion 3) | – | – | 13.1 | 124 | 115 | –
10 | GGUCUGCGAGGAUAUACAUGAGGAUCACCCAUGUGCGAGAUACUAGUGAGGUCGAUUGGUAGAAGGCGCGGACG [JL-ex3-2.06 salish99 mod] (puzzle: Exclusion 3) | – | – | 182 | 86.4 | 88.8 | –
11 | GGUCUGCGAGGAUAUACAUGAGGAUCACCCAUGUGCGAGAUACUAGUGAGGUCGGUUGGUAGAAGGCGCGGACG [JL-ex3-2.07 salish99 mod] (puzzle: Exclusion 3) | – | – | 58.8 | 37.1 | 55.6 | –
12 | GGUGAAGCAGGAUAUGUAUCGAUAUACAUGAGGAUCACCCAUGUCAUGUACAAAUUGCAUAUAGAAGGGCUUCACC [Exclusion 5 (FMN-MS2 slide v.4)] (Eterna round: R97, puzzle: Exclusion 5) | 168 | 47.4 | – | – | – | –
13 | GGUGCCCGACAAGGAUAUAAGAUACAGAAAACCUUAGAAGGUGUCACAUGAGGAUCACCCAUGUGGUCCGGCACCAAUAACUCC [Inedraor] (Eterna round: R96, puzzle: Exclusion NG 1) | 58.9 | 41.9 | – | – | – | 18.1
14 | GGUGCGUAUGUGAGGAUAUGCUGGUCCUUGGAUCAGCAGAAGGCACAUGAGGAUCACCCAUGUGGUGUCGUACC [JL bmx4 3.46] (puzzle: Brourd's mod of Exclusion 4) | – | – | – | 149 | – | –
